One assay has as its target T1, NOTCH1 (human, UniProt P46531 19-2555).
T1 construct: whole, on cells; Endogenous protein from cell lysates (antibody array, co-IP); also called NOTCH1 protein
The experiment in a line: co-immunoprecipitation, THP-1 cells and human AML patient blasts (figure legend).

For a further assay, the target named is T2, NOTCH2 (human, UniProt Q04721 26-2471).
T2 construct: whole, on cells; Endogenous protein from cell lysates (co-IP); also called NOTCH2 protein
The assay is described as above.

T2 sequence (Q04721 26-2471): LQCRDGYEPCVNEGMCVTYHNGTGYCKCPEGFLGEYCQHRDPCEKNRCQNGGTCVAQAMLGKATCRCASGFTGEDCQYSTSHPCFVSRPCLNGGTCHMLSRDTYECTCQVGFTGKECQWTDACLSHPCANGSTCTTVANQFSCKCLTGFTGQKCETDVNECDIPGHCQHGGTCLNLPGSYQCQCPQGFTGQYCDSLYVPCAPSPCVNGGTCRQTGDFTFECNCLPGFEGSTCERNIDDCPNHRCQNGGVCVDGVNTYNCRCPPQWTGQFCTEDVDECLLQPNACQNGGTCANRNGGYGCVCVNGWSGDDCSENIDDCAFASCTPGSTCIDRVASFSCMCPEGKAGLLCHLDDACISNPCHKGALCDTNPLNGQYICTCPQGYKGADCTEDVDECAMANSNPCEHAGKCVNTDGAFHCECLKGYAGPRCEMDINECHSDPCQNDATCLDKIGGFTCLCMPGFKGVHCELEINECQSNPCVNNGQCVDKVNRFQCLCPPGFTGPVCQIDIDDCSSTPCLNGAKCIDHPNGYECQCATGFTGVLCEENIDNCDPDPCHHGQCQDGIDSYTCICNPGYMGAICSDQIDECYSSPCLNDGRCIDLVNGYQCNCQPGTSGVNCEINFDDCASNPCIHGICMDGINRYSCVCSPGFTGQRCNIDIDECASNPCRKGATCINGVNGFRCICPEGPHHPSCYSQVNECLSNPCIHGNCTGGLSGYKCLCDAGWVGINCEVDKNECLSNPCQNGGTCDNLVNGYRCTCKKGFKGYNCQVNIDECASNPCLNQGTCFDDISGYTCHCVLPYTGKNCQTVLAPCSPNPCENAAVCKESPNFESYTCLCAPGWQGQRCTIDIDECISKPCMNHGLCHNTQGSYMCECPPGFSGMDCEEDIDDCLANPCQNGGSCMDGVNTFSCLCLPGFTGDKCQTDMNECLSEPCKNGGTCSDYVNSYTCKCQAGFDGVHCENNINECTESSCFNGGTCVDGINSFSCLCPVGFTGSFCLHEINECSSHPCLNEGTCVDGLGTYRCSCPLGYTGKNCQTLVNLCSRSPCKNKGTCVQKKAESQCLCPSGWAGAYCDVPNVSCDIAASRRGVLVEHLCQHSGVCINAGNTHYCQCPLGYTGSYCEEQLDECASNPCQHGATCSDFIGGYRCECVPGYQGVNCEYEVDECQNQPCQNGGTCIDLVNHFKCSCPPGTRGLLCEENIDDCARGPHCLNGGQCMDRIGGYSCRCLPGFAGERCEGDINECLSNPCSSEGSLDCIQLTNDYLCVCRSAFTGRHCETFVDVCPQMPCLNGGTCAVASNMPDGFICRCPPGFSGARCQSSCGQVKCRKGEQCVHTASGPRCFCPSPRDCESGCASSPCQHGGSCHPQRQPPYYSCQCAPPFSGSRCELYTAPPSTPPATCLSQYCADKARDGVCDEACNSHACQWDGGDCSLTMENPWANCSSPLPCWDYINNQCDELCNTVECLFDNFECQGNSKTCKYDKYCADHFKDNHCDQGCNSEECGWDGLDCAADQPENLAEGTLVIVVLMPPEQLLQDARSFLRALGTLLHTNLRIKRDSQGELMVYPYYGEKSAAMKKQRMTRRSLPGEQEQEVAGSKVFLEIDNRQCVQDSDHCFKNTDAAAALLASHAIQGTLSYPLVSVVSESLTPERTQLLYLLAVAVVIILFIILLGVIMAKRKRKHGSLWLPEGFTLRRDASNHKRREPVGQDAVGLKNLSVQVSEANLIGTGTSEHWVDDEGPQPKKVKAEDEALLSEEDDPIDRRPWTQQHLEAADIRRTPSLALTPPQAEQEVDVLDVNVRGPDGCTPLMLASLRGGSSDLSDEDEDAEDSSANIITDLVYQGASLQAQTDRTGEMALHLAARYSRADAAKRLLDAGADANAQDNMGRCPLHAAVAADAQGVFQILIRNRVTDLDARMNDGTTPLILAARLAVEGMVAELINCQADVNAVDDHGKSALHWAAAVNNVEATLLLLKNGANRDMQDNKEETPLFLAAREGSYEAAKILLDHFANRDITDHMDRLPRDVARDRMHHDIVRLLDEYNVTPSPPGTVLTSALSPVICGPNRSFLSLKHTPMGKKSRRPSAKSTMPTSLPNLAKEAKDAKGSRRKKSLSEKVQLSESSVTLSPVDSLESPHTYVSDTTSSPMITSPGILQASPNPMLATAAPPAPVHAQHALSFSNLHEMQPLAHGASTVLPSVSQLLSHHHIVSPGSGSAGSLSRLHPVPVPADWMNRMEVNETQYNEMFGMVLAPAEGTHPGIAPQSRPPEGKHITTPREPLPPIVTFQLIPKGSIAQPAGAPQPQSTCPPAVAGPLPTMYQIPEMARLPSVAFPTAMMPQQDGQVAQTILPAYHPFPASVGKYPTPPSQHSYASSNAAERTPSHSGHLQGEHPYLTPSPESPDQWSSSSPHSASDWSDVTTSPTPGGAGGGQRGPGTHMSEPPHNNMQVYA
Experimental for NOTCH1: (§1) Cell lysate of 10×10⁶ THP-1 cells or 5×10⁶ human AML patient blasts (n=2) were subjected to CO-IP with Protein G Plus/Protein A agarose beads.
(§2) Cells (1-5×10⁶) were lysed in 400 μl of Pierce Co-Immunoprecipitation lysis buffer (Thermo Scientific) supplemented with protease and phosphatase inhibitors (Roche). Cell lysis was performed on ice for 20 min and the cell lysate was sonicated for 5 sec three times. After centrifugation with 14,000 g at 4° C. for 15 min, the cell lysate supernatant was transferred to new tubes immediately and added to 50% Protein G Plus/Protein A agarose beads (EMD Millipore, Tremecula, CA, USA) with a ratio of 100 μl for a lml sample solution. After incubation with rotation at 4° C. for 1 h, and the mixture was centrifuged at 14,000 g for 10 min at 4° C. The supernatant was transferred to new tubes, added with 2-20 μg antibody and incubated on rotating shaker at 4° C. overnight. After centrifugation, the supernatant was incubated with 50 μl proteinA/G agarose at 4° C. with rotation for 2 h. The agarose beads were washed five times with ice-cold Pierce Co-Immunoprecipitation lysis buffer. Then 20 μl 2×loading buffer was added, boiled for 5 min and subjected to Western blotting. The corresponding normal antibodies were applied as negative control for CO-IP.
Experimental for NOTCH2: as §1, §2

B1: EGFL7 protein (endogenous, in lysates of human AML cells: Kasumi-1, THP-1, primary AML patient blasts) (ligand)
chain: TEHAYRPGRRVCAVRAHGDPVSESFVQRVYQPFLTTCDGHRACSTYRTIYRTAYRRSPGLAPARPRYACCPGWKRTSGLPGACGAAICQPPCRNGGSCVQPGRCRCPAGWRGDTCQSDVDECSARRGGCPQRCVNTAGSYWCQCWEGHSLSADGTLCVPKGGPPRVAPNPTGVDSAMKEEVQRLQSRVDLLEEKLQLVLAPLHSLASQALEHGLPDPGSLLVHSFQQLGRIDSLSEQISFLEEQLGSCSCKKDS
notes: Endogenous protein immunoprecipitated from cell lysates; also called Epidermal growth factor-like domain 7
For B1, the binding result in the assay with NOTCH1 and with NOTCH2 was “binds” each time.
